Test results reported in article PMC6365968 (Cell, 2018).

Experiments:
[1] = target: T1, human LAG3-Ig (immunoglobulin Fc-tagged LAG3 extracellular domain fusion protein) (human, UniProt P18627 23-450); experiment: BLI
T1 sequence (looked up): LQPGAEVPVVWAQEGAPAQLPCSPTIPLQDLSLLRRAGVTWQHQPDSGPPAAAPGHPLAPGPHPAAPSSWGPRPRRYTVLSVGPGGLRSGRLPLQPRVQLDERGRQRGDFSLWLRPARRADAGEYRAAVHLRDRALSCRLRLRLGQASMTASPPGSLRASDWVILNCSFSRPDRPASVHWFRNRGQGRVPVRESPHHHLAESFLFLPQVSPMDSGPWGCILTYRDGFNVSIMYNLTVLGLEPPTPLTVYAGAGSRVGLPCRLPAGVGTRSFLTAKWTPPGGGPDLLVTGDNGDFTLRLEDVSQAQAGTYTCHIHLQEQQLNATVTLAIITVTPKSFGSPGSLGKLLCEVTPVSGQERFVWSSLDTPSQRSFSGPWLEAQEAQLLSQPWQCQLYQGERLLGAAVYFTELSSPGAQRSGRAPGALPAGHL

[2] = target: the molecule itself; experiment: SEC-MALS
[3] = target: T2, mouse LAG3-Ig (Fc-tagged mouse LAG3 extracellular domain fusion protein) (mouse, UniProt Q61790 24-442); experiment: BLI
T2 sequence (looked up): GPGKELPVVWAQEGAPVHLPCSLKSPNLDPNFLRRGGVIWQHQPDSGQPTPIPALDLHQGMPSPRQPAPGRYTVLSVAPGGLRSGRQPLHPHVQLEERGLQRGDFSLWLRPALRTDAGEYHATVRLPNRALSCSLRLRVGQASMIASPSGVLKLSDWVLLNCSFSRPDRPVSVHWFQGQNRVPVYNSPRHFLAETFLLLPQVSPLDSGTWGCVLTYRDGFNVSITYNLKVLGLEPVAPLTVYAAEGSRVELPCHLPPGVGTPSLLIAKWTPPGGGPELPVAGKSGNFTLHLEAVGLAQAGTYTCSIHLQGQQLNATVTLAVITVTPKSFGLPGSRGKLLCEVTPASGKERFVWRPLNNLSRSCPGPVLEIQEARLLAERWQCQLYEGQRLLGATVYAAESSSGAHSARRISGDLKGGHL

B1: FLAG-tagged human FGL1 (ligand, UniProt Q08830 23-312, looked up)
chain: LEDCAQEQMRLRAQVRLLETRVKQQQVKIKQLLQENEVQFLDKGDENTVIDLGSKRQYADCSEIFNDGYKLSGFYKIKPLQSPAEFSVYCDMSDGGGWTVIQRRSDGSENFNRGWKDYENGFGNFVQKHGEYWLGNKNLHFLTTQEDYTLKIDLADFEKNSRYAQYKNFKVGDEKNFYELNIGEYSGTAGDSLAGNFHPEVQWWASHQRMKFSTWDRDHDNYEGNCAEEDQSGWWFNRCHSANLNGVYYSGPYTAKTDNGIVWYTWHGWWYSLKSVVMKIRPNDFIPNVI
B1: binds [1].

B2: FLAG-tagged mouse FGL1 (ligand, UniProt Q71KU9 23-314, looked up)
chain: LESESCLREQVRLRAQVHQLETRVKQQQTMIAQLLHEKEVQFLDKGSENSFIDLGGKRQYADCSEIYNDGFKQSGFYKIKPLQSLAEFSVYCDMSDGGGWTVIQRRSDGSENFNRGWNDYENGFGNFVQNNGEYWLGNKNINLLTIQGDYTLKIDLTDFEKNSSFAQYQSFKVGDKKSFYELNIGEYSGTAGDSLSGTFHPEVQWWASHQRMKFSTWDRDNDNYQGNCAEEEQSGWWFNRCHSANLNGVYYRGSYRAETDNGVVWYTWHGWWYSLKSVVMKIRPSDFIPNII
With B2 the “stoichiometry N” value [2] was 2 and the Kd [3] was ~1.5 nM.
